Measured values published in US10702592B2, “Peptides and combination of peptides for use in immunotherapy against NHL and other cancers” (Immatics Biotechnologies GmbH, priority 2016, dated 2020).

Each substance was assayed against HLA-A*02:01 (Homo sapiens, UniProt P04439, D140Y/D185E/D98H/E176V/E277Q/G131W/G231S/I119V/I121R/I166T/I218V/L300P/L318F/N151K/N90K/P208A/P217A/Q86G/Q94H/R138H/R169H/T345S) (assay: MHC binding assay (UV-ligand exchange, beta2m ELISA)). Settings: binding to HLA-A*02:01, UV-ligand exchange.
Text: Candidate peptides for T cell based therapies according to the present invention were further tested for their MHC binding capacity (affinity). The individual peptide-MHC complexes were produced by UV-ligand exchange, where a UV-sensitive peptide is cleaved upon UV-irradiation, and exchanged with the peptide of interest as analyzed. Only peptide candidates that can effectively bind and stabilize the peptide-receptive MHC molecules prevent dissociation of the MHC complexes. To determine the yield of the exchange reaction, an ELISA was performed based on the detection of the light chain (β2m) of stabilized MHC complexes. The assay was performed as generally described in Rodenko et al. (Rodenko et al., 2006).
96 well MAXISorp plates (NUNC) were coated over night with 2 ug/ml streptavidin in PBS at room temperature, washed 4× and blocked for 1 h at 37° C. in 2% BSA containing blocking buffer. Refolded HLA-A*02:01/MLA-001 monomers served as standards, covering the range of 15-500 ng/ml. Peptide-MHC monomers of the UV-exchange reaction were diluted 100 fold in blocking buffer. Samples were incubated for 1 h at 37° C., washed four times, incubated with 2 ug/ml HRP conjugated anti-β2m for 1 h at 37° C., washed again and detected with TMB solution that is stopped with […]. Absorption was measured at 450 nm. Candidate peptides that show a high exchange yield (preferably higher than 50%, most preferred higher than 75%) are generally preferred for a generation and production of antibodies or fragments thereof, and/or T cell receptors or fragments thereof, as they show sufficient avidity to the MHC molecules and prevent dissociation of the MHC complexes.

Peptide exchange (MHC class I binding score, peptide exchange yield) | Substance
“+++” (≥50 = +++) | 124 (FLGVVVPTV; listed as Homo sapiens) [compound 124]
“+++” (≥50 = +++) | 125 (FVAPPTAAV; listed as Homo sapiens) [compound 125]
“+++” (≥50 = +++) | 127 (HLMEENMIVYV; listed as Homo sapiens) [compound 127]
“+++” (≥50 = +++) | 128 (KLFDASPTFFA; listed as Homo sapiens) [compound 128]
“+++” (≥50 = +++) | 129 (SLFEASQQL; listed as Homo sapiens) [compound 129]
“+++” (≥50 = +++) | 130 (VIFSYVLGV; listed as Homo sapiens) [compound 130]
“++” (≥20% = ++) | 131 (VLIEETDQL; listed as Homo sapiens) [compound 131]
“++” (≥20% = ++) | 132 (VLQDQVDEL; listed as Homo sapiens) [compound 132]
“++” (≥20% = ++) | 133 (ALEELTGFREL; listed as Homo sapiens) [compound 133]
“+++” (≥50 = +++) | 134 (ALGRLGILSV; listed as Homo sapiens) [compound 134]
“+++” (≥50 = +++) | 135 (ALTGLQFQL; listed as Homo sapiens) [compound 135]
“+++” (≥50 = +++) | 136 (FIFGIVHLL; listed as Homo sapiens) [compound 136]

The next lines start with the substance.

Substance | Peptide exchange (MHC class I binding score, peptide exchange yield)
108 (YLAPENGYLM; listed as Homo sapiens) [compound 108] | “+++” (≥50 = +++)
109 (YLFQFSAAL; listed as Homo sapiens) [compound 109] | “+++” (≥50 = +++)
110 (YQYPFVLGL; listed as Homo sapiens) [compound 110] | “++++” (≥75% = ++++)
111 (YLLDTLLSL; listed as Homo sapiens) [compound 111] | “+++” (≥50 = +++)
112 (FLAILPEEV; listed as Homo sapiens) [compound 112] | “+++” (≥50 = +++)
113 (FVIDSFEEL; listed as Homo sapiens) [compound 113] | “+++” (≥50 = +++)
114 (GLSDISPST; listed as Homo sapiens) [compound 114] | “++” (≥20% = ++)
115 (LLIDIIHFL; listed as Homo sapiens) [compound 115] | “++++” (≥75% = ++++)
116 (SLLDNLLTI; listed as Homo sapiens) [compound 116] | “+++” (≥50 = +++)
117 (VLATILAQL; listed as Homo sapiens) [compound 117] | “++++” (≥75% = ++++)
118 (VLDGMIYAI; listed as Homo sapiens) [compound 118] | “+++” (≥50 = +++)
119 (ELCDIILRV; listed as Homo sapiens) [compound 119] | “+++” (≥50 = +++)
120 (VLLGTTWAL; listed as Homo sapiens) [compound 120] | “+++” (≥50 = +++)
121 (YLTGYNFTL; listed as Homo sapiens) [compound 121] | “+++” (≥50 = +++)
122 (AISEAQESV; listed as Homo sapiens) [compound 122] | “++” (≥20% = ++)
123 (ALLSAFVQL; listed as Homo sapiens) [compound 123] | “+++” (≥50 = +++)
